Columns and labels:
circulating cytokines = details: 8.45 mg/kg, Luminex
[1] = Tablet compression force screening: tablet properties, dimer purity and recovery; assay type: physicochemical
Method: Various compression forces were used to create F1 tablets (TABLE 31) and F2 tablets (TABLE 32). Dimer purity of the target construct was also examined following compaction into a tablet. […] Dimer recovery was also assessed following dissolution of various tablets at pH 7.0 (FIGS. 20A-20D).
An additional tablet (F3) was created, which was similar to an F1 tablet but with glyceryl dibehenate in place of magnesium stearate (TABLE 33). This substitution was made due to incompatibility of magnesium stearate in dissolution of target constructs in solution.

STAT3 phosphorylation = assay: pSTAT3 and hIL-10 immunofluorescence in intestine 40 min post oral gavage; assay type: in vivo, rat
Method: This observation is consistent with findings in mice that intestinal epithelial cells can express IL-10 receptors at their apical surface under certain conditions associated with development and maintenance of barrier function. […] In order to quantify how test articles affected intestinal IL-10 signal transduction pathways, image analysis was performed: high-throughput image batches were collected, segmented by epithelial versus Lamina propria localization, and then by cellular features.

IL-1Ra [2] = assay: Single oral capsule dose in NHP: plasma IL-1Ra; assay type: in vivo, Macaca fascicularis
Method: The purpose of the IL-1Ra assay was to measure endogenous IL-1Ra in NHP plasma. The antibody pair in this sandwich immunoassay reacted with both human and NHP IL-1Ra. Samples were quantitated using an 8-point standard curve prepared from a human IL-1Ra calibrator (ranging from 5.5-4021 pg/mL, plus 0 pg/mL). Biotinylated anti-NHP IL-1Ra capture antibody was added to a MSD Small Spot Streptavidin plate and incubated for an hour at RT with shaking. Controls that represent low ([…]), mid ([…]) and high concentrations (3245 pg/mL) were prepared in pooled plasma, Standards (Calibrator 9 Blend) were prepared in Diluent 43 (MSD Cat No R50AG), and samples diluted 10 fold in Diluent 43. Standards, controls and diluted samples were added to the assay plate, and the plate incubated for 2 hours at room temperature with shaking. The plate was washed 3 times with PBST, and 1×SULFO TAG anti-IL-1Ra Antibody added to the plate. The plate was incubated for 1 hour at room temperature with shaking. Following a wash step, 2×MSD Read buffer was added to the wells of the plate, and the plate read using the MSD Sector Imager 600 plate reader. The lower limit of detection of each analyte is defined as 2.5 standard deviation above background.
IL-10 delivery construct dosing at multiple fixed doses in non-naïve adult male Macaca fascicularis was conducted by Valley Biosystems (West Sacramento, Calif.). […] Dosing groups are described in TABLE 45.
Blood samples were collected in K2EDTA tubes from each animal pre-dose and at 0.5, 1, 2, 3, 4, 5, 6, 7, 8, and 24 hours post-dose. Animals were returned to home cages following the 2-hour sample collection. Following physical restraint, blood samples were collected via direct venous puncture using a cephalic, femoral or saphenous vein, which were processed to plasma and stored frozen at −60° C. until shipment.

colonic tissue = assay: Pan-colonic administration in NHP: colonic tissue IL-10, IL-1Ra, pSTAT3, cytokines; assay type: in vivo, cynomolgus monkeys
Method: IL-10 delivery construct solution (at concentrations of 0.1, 0.3 and 1.0 mg/mL for the low, mid and high-dose groups respectively) was administered via the rectal route using sigmoidoscopy and a syringe connected to a spray nozzle with a 360° spray pattern. Serial biopsy samples were collected by sigmoidoscopy (pre-dose, 0.25, 0.5, 0.75, 8 and 24-28 hours post dose). Serial plasma samples from 0 min pre-dose to between 24-28 hours post-dose were collected for analysis for the IL-10 delivery construct.
Phosphorylation of STAT3 is an early downstream event following IL-10 receptor activation.
Colonic biopsies at each tissue timepoint were analyzed for local concentration of IL-10 delivery construct, total IL-10, IL-1Ra, soluble cytokines, activation of STAT3 and gene expression following administration of the IL-10 delivery construct. […] In addition, STC1, MTNR1A and VNN2 encode proteins that suppress the […] signaling pathway, a pathway through which key pro-inflammatory cytokines are regulated. […] This is consistent with the ability of IL-10 to suppress these cells' activation or differentiation towards a pro-inflammatory immune phenotype.

[3] = system: cells of the Lamina propria; assay: Cell targeting in the Lamina propria after intraluminal injection (immunofluorescence); assay type: in vivo, Wistar rats
Method: Rats were anesthetized using inhaled isoflurane and euthanized by inhaled CO2.
Experiments were initiated by making an approximately 4 cm abdominal incision to access the mid-jejunum region of the small intestine. After performing the incision, 50 μl of a prepared solution of the IL-10 delivery construct (typically at about 1 mg/mL) was injected into the intestinal lumen of an area devoid of foodstuffs through a 27-gauge needle using a 1 mL syringe. The mesentery adjacent to the site of injection was labeled with a marker and the intestine was returned to the abdominal cavity, with the incision being closed with clamps.
At specific times, the injected intestine was retrieved, surgically isolated and flushed with a 4° C. isotonic PBS. Washed, excised samples were fixed (4% paraformaldehyde in PBS) overnight at 4° C. before dehydration through graded series of ethanol/water solutions and overnight incubation in chloroform.
Dehydrated tissues were immersed in wax, sectioned, and mounted on poylysine slides and processed for antigen retrieval using sodium citrate. Afterward, sections were permeabilised with 0.2% Triton-X100 in PBS prior to thrice washing in PBS and blocking with 2% BSA+2% serum of the animal the secondary antibodies have been raised. Primary antibodies were diluted in 1% BSA, 0.1% Triton-X100 in PBS and incubated overnight at 4° C. in humidified air. Fluorescent secondary antibodies were diluted in 1% BSA, 0.1% Triton-X100 in PBS and incubated for 2 h at RT prior to processing for confocal microscopy. On occasion, an approximately 1 cm section of intestine at the injection site was collected for biochemical studies.
Proteins for specific cell types were examined by immuno-fluorescence using confocal microscopy. The IL-10 delivery construct components (the carrier, also referred to herein as “cholix,” and IL-10) were followed separately with either a polyclonal antibody (pAb) or monoclonal antibody (mAb) to IL-10 or a pAb or mAb to the carrier domain to allow co-localization with pAb or mAbs available (TABLE 46).

IL-1Ra [4] = assay type: in vivo, mice; details: 9 mg/kg

B1: IL-10 delivery construct: recombinant homodimeric fusion protein: N-terminal methionine, cholix386 domain, polyGlySer spacer, recombinant human IL-10 (protein)
chain: MVEEALNIFDECRSPCSLTPEPGKPIQSKLSIPSDVVLDEGVLYYSMTINDEQNDIKDEDKGESIITIGEFATVRATRHYVNQDAPFGVIHLDITTENGTKTYSYNRKEGEFAINWLVPIGEDSPASIKISVDELDQQRNIIEVPKLYSIDLDNQTLEQWKTQGNVSFSVTRPEHNIAISWPSVSYKAAQKEGSRHKRWAHWHTGLALCWLVPMDAIYNYITQQNCTLGDNWFGGSYETVAGTPKVITVKQGIEQKPVEQRIHFSKGNAMSALAAHRVCGVPLETLARSRKPRDLTDDLSCAYQAQNIVSLFVATRILFSHLDSVFTLNLDEQEPEVAERLSDLRRINENNPGMVTQVLTVARQIYNDYVTHHPGLTPEQTSAGAQAGGGGSGGGGSGGGGSPGQGTQSENSCTHFPGNLPNMLRDLRDAFSRVKTFFQMKDQLDNLLLKESLLEDFKGYLGCQALSEMIQFYLEEVMPQAENQDPDIKAHVNSLGENLKTLRLRLRRCHRFLPCENKSKAVEQVKNAFNKLQEKGIYKAMSEFDIFINYIEAYMTMKIRN
modifications: homodimer
- reduction of plasma IL-6 vs Vehicle (circulating cytokines): 33%
- reduction of plasma IL-23 vs Vehicle (circulating cytokines): 73%
- robustness of protein to compaction, granulation and tableting (dimer purity) [1]: robust to compaction and granulation, although some aggregation was observed in final tablet form
- hIL-10 and pSTAT3 in intestinal tissue (STAT3 phosphorylation): extensive amounts of hIL-10 and a large number of cells that were positive for pSTAT3 within the Lamina propria
- time of plasma IL-1Ra Cmax (IL-1Ra [2]; 82 mg): 3 hours post-dose
- dose response of IL-1Ra Cmax (IL-1Ra [2]; 1, 4 and 20.5 mg): No dose response relationship
- time by which plasma IL-1Ra returned to baseline (IL-1Ra [2]; all dose groups): ≤ 24 hour post-dose
- total IL-10 in colonic tissue (colonic tissue; 1, 3, 10 mg): dose-dependent increase
- colonic tissue pSTAT3/STAT3 (colonic tissue; all doses tested): Higher ratios
- time by which extensive amount reached the Lamina propria ([3]; 1-minute pulse, intraluminal injection): ≤ 15 min
- co-localization with LAMP1-positive lysosomes in enterocytes ([3]; 15-minute time course): little or no co-localization
- co-localization with CD3 antigen (T lymphocytes) ([3]; Lamina propria): striking co-localizations
- co-localization with CD19-positive cells (B-lymphocytes) ([3]; Lamina propria): failed to co-localize
- co-localization with CD34-positive cells (endothelia) ([3]; Lamina propria): failed to co-localize
- co-localization with CD11c antigen (dendritic cells) ([3]; Lamina propria, rat jejunum): did not co-localize with CD11c antigen to any striking extent
- IL-1Ra mRNA in near-distal colonic tissue (IL-1Ra [4]): trend towards augmented mRNA expression of IL-1Ra
- IL-1Ra/IL-1β ratio in colonic tissue (IL-1Ra [4]): increase in the IL-1Ra/IL-1β ratio
